In assay [1] the target is T1, P8 (alanine substituted, FIG. 3 panel E).
T1 construct: also called P218 to alanine
Nature of the assay: ELISA: 500 ng peptide coated per well, 29E4 at 40 ng/mL, HRP goat anti-rabbit Ig 1:16,000, ABS 450 nm, duplicates [CONT. 2]. The text has this: (§1) HRP Goat anti-rabbit Ig was applied at 1:16,000 dilution in all reactions.
(§2) Peptides were synthesized to achieve ≥70% HPLC purity by a commercial vendor (GenScript Biotech, Piscataway, NJ). Peptides were reconstituted in either water, or with addition of acetonitrile, methanol, 10% acetic acid, or DMSO, depending on the overall charge of each peptide. Key residues required for mAb binding were probed by ELISA using overlapping peptides, truncated peptides and alanine substituted peptides. Reactions were performed in duplicate using NUNC 96-well flatbottom MaxiSorp plates (Thermo Scientific). After coating each well with 500 ng of peptide in 100 μL coating buffer (50 mM NaHCO₃, pH 9.6), the plates were sealed and incubated at 4° C. overnight. […] Plates were then washed once with wash buffer, incubated with 100 μL mAb 29E4 (serially diluted from 1 mg/mL) for 1 hour at 37° C. Plates were further washed four times with wash buffer, and then incubated at 37° C. with 100 μL of a horse radish peroxidase (HRP)-conjugated secondary antibody against the primary antibody, diluted 1:16,000 according to manufacturer's protocols (KPL, Inc., Gaithersburg, MD). After washing four times with wash buffer, 100 μL of K-Blue Aqueous TMB substrate (Neogen, Lexington, KY) was added to the plates and incubated uncovered for 30 minutes at room temperature. To stop the reaction, 100 μL of 2 N Sulphuric acid was added to each well and absorbance were measured immediately at 450 nm. All dilutions of reagents were performed in ELISA diluent (20% NGS in 1×PBS with 0.1% Triton-X 100).
For orientation: ELISA stands for enzyme-linked immunosorbent assay.

Assay [2] has as its target T2, P21 (alanine substituted, FIG. 3 panel E).
T2 construct: also called Y231 to alanine
The assay is described as above.
Text: as §1, §2

The target of assay [3] is T3, P27 (alanine substituted, FIG. 3 panel E).
T3 construct: also called E237 to alanine
Described as above.
Text: as §1, §2

Assay [4] concerns the target T4, P7 (alanine substituted, FIG. 3 panel E).
T4 construct: not the overlapping peptide P7 of panels A and C; also called E217 to alanine
Described as above.
Text: as §1, §2

For assay [5], the target named is T5, P24 (alanine substituted, FIG. 3 panel E).
T5 construct: also called P234 to alanine
The description is as above.
Text: as §1, §2

The target in assay [6] is T6, P15 (alanine substituted, FIG. 3 panel E).
T6 construct: also called Q225 to alanine
The description is as above.
Text: as §1, §2

In assay [7] the target is T7, P25 (alanine substituted, FIG. 3 panel E).
T7 construct: also called V235 to alanine
Described as above.
Text: as §1, §2

In assay [8] the target is T8, P20 (alanine substituted, FIG. 3 panel E).
T8 construct: also called E230 to alanine
The assay is described as above.
Text: as §1, §2

Assay [9] deals with T9, P6 (alanine substituted, FIG. 3 panel E).
T9 construct: not the overlapping peptide P6 of panel A; also called S216 to alanine
The assay is described as above.
Text: as §1, §2

The target in assay [10] is T10, ETV1 immunogenic peptide P1 (human).
T10 construct: 27 amino acid peptide, ETV1 residues 212-238; also called immunogen peptide; ETV1 P1 peptide
Briefly: SPR (Biacore T200), antibody amine-coupled on CM5 chip, peptide as analyte, 1:1 binding fit. Here is the method: Affinity measurements using SPRi was performed using a Biacore T200 instrument (Cytiva, Marlborough, MA) by Creative Biolabs (Shirley, NY, USA). The ETV1 (29E4) antibody was directly immobilized onto a CM5 sensor chip surface using an amine coupling kit (Cytiva). Before immobilization, the CM5 sensor surface was activated using a mixture of 400 mM 1-ethyl-3-(3-dimethylaminopropyl) carbodiimide (EDC) and 100 mM N-hydroxysuccinimide (NHS). The ETV1 antibody was diluted to 40 μg/ml in immobilization buffer (10 mM NaAc, pH 4.5) and injected into Fc4 sample channel at a flow rate of 10 μL/min. The amount of antibody (ligand) immobilized was about 5,000 RU. The chip was deactivated by 1 M Ethanolamine hydrochloride-NaOH (GE Healthcare Life Sciences, Piscataway, NJ) at a flow rate of 10 μL/min for 420 seconds. The reference Fc3 channel underwent similar procedures but without injecting the ligand. […] Different concentrations of the […] were then injected into the cell over both channels at a flow rate of 30 μL/min, with a contact time of 90 seconds, followed by a dissociation time of 210 seconds. The surface was regenerated with 10 mM Glycine-HCl, pH 1.5 after each injection to prepare for the injection of the next antibody dilution sample. Data analysis was performed on the Biacore T200 computer and with the Biacore T200 evaluation software, using the steady-state affinity model or 1:1 binding model.
The binding of the 29E4 mAb to its epitope sequence was further analyzed by using SPRi. After immobilizing the ETV1 mAb onto a matrix of dextran on the surface of a Sensor Chip to a level of 5000 response units (RU) with standard amine coupling (FIG. 4, panel A), different concentrations of the serially diluted peptide were then injected as an analyte into the cell over both channels for 300 seconds (contact time of 90 seconds, followed by a dissociation time of 210 seconds) to give a response of about 180 RU. The different binding affinity of each antibody dilution is depicted in the overlay plot of SPR sensorgrams and fitting curves (FIG. 4, panel B).
Background: Surface plasmon resonance follows binding to a sensor surface in real time, without labels.

Experimental findings from US20260227403A1 (HENRY M JACKSON FOUNDATION FOR THE ADVANCEMENT OF MILITARY …, published 2026) are described below.

One may read the Kd as the constant that tells how readily two partners part at equilibrium. What is called koff is a measure of how fast the partners let go of each other. A lower koff goes with slow dissociation. A word on the kon: it is the rate constant with which the complex forms. A higher kon goes with faster complex formation.

T10 sequence (peptide, as listed by the source): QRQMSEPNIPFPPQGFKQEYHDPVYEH
T2 sequence (peptide, as listed by the source): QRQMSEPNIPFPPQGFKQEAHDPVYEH
T8 sequence (peptide, as listed by the source): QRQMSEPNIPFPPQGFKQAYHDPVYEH
T5 sequence (peptide, as listed by the source): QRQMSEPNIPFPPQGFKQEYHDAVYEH
T9 sequence (peptide, as listed by the source): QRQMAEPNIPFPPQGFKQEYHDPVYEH
T7 sequence (peptide, as listed by the source): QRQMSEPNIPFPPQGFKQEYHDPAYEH
T3 sequence (peptide, as listed by the source): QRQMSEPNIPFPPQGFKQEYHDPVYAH
T4 sequence (peptide, as listed by the source): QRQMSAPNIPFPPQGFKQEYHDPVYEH
T6 sequence (peptide, as listed by the source): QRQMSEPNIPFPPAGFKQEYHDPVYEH
T1 sequence (peptide, as listed by the source): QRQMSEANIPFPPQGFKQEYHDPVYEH

B1: ETV1 rabbit monoclonal antibody (29E4) (antibody, V domains shown)
VH: QELEESGGDLVKPGASLTLTCTASGFFFSAENHICWVRQAPGKGLEWIGCVYIGSYVGGSGDPYYASWAKGRFTISKTSSTTVTLQMSSLTAADTATYFCARDLGSLWGPGTLVTVSS
VL: DVVMTQTASSVSAAVGGTVTIACQSSQSVYDNNNLAWFQQKPGQPPKRLIYSASTLASGVSSRFKGSGYGTQFTLTISDVQCDDAATYYCVGAFSGYIFVFGGGTEVVVK
notes: constant regions are not; also called 29E4 mAb; ETV1 29E4 mAb
With B1, the binding result in [1], in assay [2], in [3], in [4], in [5] and in [6] was “binds” each time. For the same molecule, the binding result in [7], in assay [8] and in assay [9] was “binds” in each case. The same molecule came in with a dissociation constant Kd in assay [10] of 0.479 nM. The molecule further had an off-rate (koff) in assay [10] of 0.000149 s⁻¹. Besides, the kon in assay [10] was 311000 M⁻¹ s⁻¹.
